# Test results taken from patent US20240307512A1.
# Tests used:
# [1] = target: SARS-COV-2 Spike Omicron BA.1 (on pVSV-Luc-SARS-COV-2-S pseudovirus) (SARS-COV-2) (UniProt P0DTC2)
# [2] = target: SARS-COV-2 Spike Omicron BA.2 (on pVSV-Luc-SARS-COV-2-S pseudovirus) (SARS-COV-2) (UniProt P0DTC2)
substance,measurement,setting,value
ACE2 v2.4 (615)-Fc (IgG) (from UniProt Q9BYF1) (Fc fusion),IC50 (read off the curve),[1],0.02 nM
same,IC50 (read off the curve),[2],0.04 nM
